The values below come from IntAct's records for PubMed 29039417.

First the molecules themselves.
B1: Isoform 2 of Bardet-Biedl syndrome 7 protein (Homo sapiens), Q8IWZ6-2 (parent)
chain: MDLILNRMDYLQVGVTSQKTMKLIPASRHRATQKVVIGDHDGVVMCFGMKKGEAAAVFKTLPGPKIARLELGGVINTPQEKIFIAAASEIRGFTKRGKQFLSFETNLTESIKAMHISGSDLFLSASYIYNHYCDCKDQHYYLSGDKINDVICLPVERLSRITPVLACQDRVLRVLQGSDVMYAVEVPGPPTVLALHNGNGGDSGEDLLFGTSDGKLALIQITTSKPVRKWEIQNEKKRGGILCIDSFDIVGDGVKDLLVGRDDGMVEVYSFDNANEPVLRFDQMLSESVTSIQGGCVGKDSYDEIVVSTYSGWVTGLTTEPIHKESGPGEELKINQEMQNKISSLRNELEHLQYKVLQERENYQQSSQSSKAKSAVPSFGINDKFTLNKDDASYSLILEVQTAIDNVLIQSDVPIDLLDVDKNSAVVSFSSCDSESNDNFLLATYRCQADTTRLELKIRSIEGQYGTLQAYVTPRIQPKTCQVRQYHIKPLSLHQRTHFIDHDRPMNTLTLTGQFSFAEVHSWVVFCLPEVPEKPPAGECVTFYFQNTFLDTQLESTYRKGEGVFKSDNISTISILKDVLSKEATKRKINLNISYEINEVSVKHTLKLIHPKLEYQLLLAKKVQLIDALKELQIHEGNTNFLIPEYHCILEEADHLQEEYKKQPAHLERLYG
partner: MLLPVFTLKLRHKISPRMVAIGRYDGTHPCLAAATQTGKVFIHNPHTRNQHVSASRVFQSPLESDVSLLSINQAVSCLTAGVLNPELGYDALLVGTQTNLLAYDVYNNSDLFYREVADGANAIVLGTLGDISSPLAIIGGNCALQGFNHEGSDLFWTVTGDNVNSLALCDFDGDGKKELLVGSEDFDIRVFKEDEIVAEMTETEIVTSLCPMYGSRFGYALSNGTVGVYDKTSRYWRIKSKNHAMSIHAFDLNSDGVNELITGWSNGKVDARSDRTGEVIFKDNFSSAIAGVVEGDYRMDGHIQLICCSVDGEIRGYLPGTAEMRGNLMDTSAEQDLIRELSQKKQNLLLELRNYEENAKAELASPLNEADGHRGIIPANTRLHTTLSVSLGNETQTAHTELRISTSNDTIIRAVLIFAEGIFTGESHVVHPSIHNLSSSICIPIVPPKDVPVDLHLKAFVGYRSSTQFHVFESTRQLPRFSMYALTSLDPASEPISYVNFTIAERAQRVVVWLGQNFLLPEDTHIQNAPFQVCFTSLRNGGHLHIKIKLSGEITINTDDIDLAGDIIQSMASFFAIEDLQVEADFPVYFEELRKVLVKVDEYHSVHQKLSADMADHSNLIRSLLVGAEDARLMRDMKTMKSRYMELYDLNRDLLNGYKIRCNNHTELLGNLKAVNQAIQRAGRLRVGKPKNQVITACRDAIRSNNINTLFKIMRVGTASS

The variants in the assay derive from B1. As to conditions: with bbs2_human BBS2, Q9BXC9.
E519A: the “effect of a mutation on the interaction” value is listed as “with no effect”. Then E519K, with “with no effect”; and Q495E, with “with no effect”; and Q495A, with “with no effect”. Then Q495K, with “with no effect”; and A470E, with “with no effect”; and A470K, with “with no effect”. D501E: the “effect of a mutation on the interaction” value is “with no effect”.

D501A: the “effect of a mutation on the interaction” value is reported as “with no effect”. Consider D501K, for which the “effect of a mutation on the interaction” value is listed as “with no effect”. For the variant Q514K, the “effect of a mutation on the interaction” value was “with no effect”. Then Q514A, with “with no effect”; and Q514E, with “with no effect”; and I488K, with “with no effect”. Regarding I488A, the “effect of a mutation on the interaction” value is given as “with no effect”. The entry for I488E is “with no effect”; for R484K it is “with no effect”.

As to R484E, the “effect of a mutation on the interaction” value is listed as “with no effect”.

R484A: the “effect of a mutation on the interaction” value was “with no effect”. Then I500A, with “with no effect”. Consider I500K, for which the “effect of a mutation on the interaction” value is “with no effect”.

Take I500E: the “effect of a mutation on the interaction” value was “with no effect”. In the case of I476A, the “effect of a mutation on the interaction” value is listed as “disrupting interaction strength”. For the variant I476E, the “effect of a mutation on the interaction” value was “with no effect”. The entry for I476K is “with no effect”. Then R475K, with “with no effect”; and R475E, with “with no effect”; and R475A, with “disrupting interaction strength”. The entry for K489A is “with no effect”; for K489E it is “with no effect”. On to S522A, for which the “effect of a mutation on the interaction” value is recorded as “with no effect”. The entry for S522E is “disrupting interaction strength”. Then R504E, with “with no effect”; and R504K, with “with no effect”; and R504A, with “with no effect”. In the case of H502E, the “effect of a mutation on the interaction” value was “with no effect”. Consider H502K, for which the “effect of a mutation on the interaction” value is reported as “with no effect”. On to H502A, for which the “effect of a mutation on the interaction” value was “with no effect”. The entry for P505E is “with no effect”. Turning to P505K, the “effect of a mutation on the interaction” value was “with no effect”. Then P505A, with “with no effect”; and T508E, with “with no effect”; and T508A, with “with no effect”.

On to T508K, for which the “effect of a mutation on the interaction” value was “with no effect”. Regarding P474K, the “effect of a mutation on the interaction” value was “disrupting interaction strength”. Then P474E, with “disrupting interaction strength”; and P474A, with “with no effect”; and Q477A, with “disrupting interaction strength”. Then Q477K, with “with no effect”; and Q477E, with “with no effect”; and P478K, with “with no effect”. The entry for P478E is “with no effect”. For P478A, the “effect of a mutation on the interaction” value is reported as “with no effect”. Take S516A: the “effect of a mutation on the interaction” value was “with no effect”. Then S516K, with “with no effect”; and S516E, with “with no effect”; and M506A, with “with no effect”. The entry for M506K is “with no effect”.

In the case of M506E, the “effect of a mutation on the interaction” value was “with no effect”.

Regarding L511A, the “effect of a mutation on the interaction” value was “with no effect”. Then L511K, with “with no effect”; and L511E, with “with no effect”; and L511P, with “disrupting interaction strength”. For the variant T473A, the “effect of a mutation on the interaction” value is “with no effect”. Then T473K, with “with no effect”; and T473E, with “with no effect”; and T480A, with “with no effect”. Then T480E, with “with no effect”. Turning to T480K, the “effect of a mutation on the interaction” value is recorded as “with no effect”. Then N507A, with “with no effect”; and N507K, with “with no effect”. Then N507E, with “with no effect”. Regarding S492E, the “effect of a mutation on the interaction” value is “with no effect”.

Regarding S492K, the “effect of a mutation on the interaction” value is recorded as “with no effect”.

On to S492A, for which the “effect of a mutation on the interaction” value is “with no effect”.

For T497E, the “effect of a mutation on the interaction” value is “with no effect”.

Turning to T497A, the “effect of a mutation on the interaction” value was “with no effect”. For T497K, the “effect of a mutation on the interaction” value was “with no effect”. With V483E, the “effect of a mutation on the interaction” value is on record as “with no effect”.

On to V483K, for which the “effect of a mutation on the interaction” value was “with no effect”. For V483I, the “effect of a mutation on the interaction” value is on record as “disrupting interaction strength”. Then V483A, with “with no effect”. As to Y471A, the “effect of a mutation on the interaction” value is given as “with no effect”. The entry for Y471E is “with no effect”; for Y471K it is “with no effect”. Then A518K, with “with no effect”. Then A518E, with “with no effect”. As to Q469K, the “effect of a mutation on the interaction” value is “with no effect”.

With Q469E, the “effect of a mutation on the interaction” value was “with no effect”. The entry for Q469A is “disrupting interaction strength”; for L493E it is “with no effect”; for L493A it is “with no effect”.

In the case of L493P, the “effect of a mutation on the interaction” value is “disrupting interaction strength”. The entry for L493K is “with no effect”; for H521A it is “with no effect”; for H521K it is “with no effect”.

With H521E, the “effect of a mutation on the interaction” value is “with no effect”. The entry for F517A is “with no effect”. Then F517K, with “with no effect”. Take F517E: the “effect of a mutation on the interaction” value was “with no effect”. As for L509P, the “effect of a mutation on the interaction” value is “disrupting interaction strength”. In the case of L509A, the “effect of a mutation on the interaction” value is listed as “with no effect”. Then L509E, with “with no effect”; and L509K, with “with no effect”; and G513D, with “disrupting interaction strength”.

With G513S, the “effect of a mutation on the interaction” value is reported as “disrupting interaction strength”. Then G513E, with “with no effect”. Then G513H, with “disrupting interaction strength”. G513Y: the “effect of a mutation on the interaction” value was “disrupting interaction strength”. The entry for G513K is “with no effect”; for G513A it is “with no effect”. Turning to K479A, the “effect of a mutation on the interaction” value is given as “with no effect”.

Regarding K479E, the “effect of a mutation on the interaction” value was “with no effect”. The entry for T510A is “with no effect”; for T510E it is “with no effect”; for T510K it is “with no effect”.

On to V472A, for which the “effect of a mutation on the interaction” value was “with no effect”. Then V472K, with “with no effect”.

For the variant V472M, the “effect of a mutation on the interaction” value is reported as “disrupting interaction strength”. Then V472E, with “disrupting interaction strength”; and H487K, with “with no effect”; and H487A, with “with no effect”. Then H487E, with “with no effect”; and F515K, with “disrupting interaction strength”. Then F515E, with “with no effect”; and F515A, with “with no effect”. As for H498K, the “effect of a mutation on the interaction” value is on record as “with no effect”. The entry for H498E is “with no effect”. The entry for H498A is “with no effect”; for Q485A it is “with no effect”; for Q485E it is “with no effect”. Regarding Q485K, the “effect of a mutation on the interaction” value is given as “with no effect”. Then Q485N, with “disrupting interaction strength”.

In the case of Q485L, the “effect of a mutation on the interaction” value is on record as “disrupting interaction strength”. As for Q485R, the “effect of a mutation on the interaction” value is recorded as “disrupting interaction strength”.

Y486K: the “effect of a mutation on the interaction” value is given as “with no effect”. On to Y486A, for which the “effect of a mutation on the interaction” value was “with no effect”. The entry for Y486E is “with no effect”. Consider F499A, for which the “effect of a mutation on the interaction” value was “with no effect”. Then F499E, with “with no effect”. For F499K, the “effect of a mutation on the interaction” value is given as “with no effect”.

With F499S, the “effect of a mutation on the interaction” value is given as “disrupting interaction strength”. The entry for T512A is “with no effect”. Then T512K, with “with no effect”. Then T512E, with “with no effect”; and L468K, with “with no effect”; and L468E, with “with no effect”.

For L468P, the “effect of a mutation on the interaction” value was “disrupting interaction strength”. The entry for H494K is “with no effect”. The entry for H494E is “with no effect”; for H494A it is “with no effect”.

For the variant V520E, the “effect of a mutation on the interaction” value is “with no effect”. The entry for V520K is “with no effect”; for V520A it is “with no effect”; for P490K it is “with no effect”. P490A: the “effect of a mutation on the interaction” value is listed as “with no effect”. Then P490E, with “with no effect”; and P490L, with “disrupting interaction strength”; and C481A, with “with no effect”. Turning to C481K, the “effect of a mutation on the interaction” value is “with no effect”. The entry for C481R is “disrupting interaction strength”; for C481E it is “with no effect”. The entry for Q482A is “with no effect”; for Q482E it is “with no effect”; for Q482K it is “with no effect”. Then L491K, with “with no effect”.

For L491A, the “effect of a mutation on the interaction” value is reported as “with no effect”. Turning to L491P, the “effect of a mutation on the interaction” value was “disrupting interaction strength”.

On to L491E, for which the “effect of a mutation on the interaction” value was “with no effect”. In the case of R496E, the “effect of a mutation on the interaction” value is listed as “with no effect”.

Take R496A: the “effect of a mutation on the interaction” value is “with no effect”. The entry for R496K is “with no effect”. Then D503A, with “with no effect”; and D503E, with “with no effect”. Then D503K, with “with no effect”.
